Assays:
[1] = molecular target: the molecule itself; assay: crystal structure; MBP-JMJD7 (20 mg/ml), vapor diffusion, 100 mM Citrate Sodium, 20% PEG 3350, 4 °C; in the absence of α-KG; two molecules in one asymmetric unit
[2] = molecular target: the molecule itself; assay: crystal structure; mJMJD7 (from GST-mJMJD7, tag removed, 10 mg/ml), vapor diffusion, 0.1 M MES monohydrate pH6.0, 10% PEG4000, 4 °C; in the presence of α-KG; two molecules in one asymmetric unit

| Protein | stoichiometry N [1] | stoichiometry N [2] |
| --- | --- | --- |
| MBP-JMJD7 fusion protein (with a truncated linker) (enzyme, mouse, JMJD7, mouse; Crystallised as the fusion; MBP (PDB 1HSJ) was a search model for molecular replacement) MAEAALEAVRRALQEFPAAARDLNVPRVVPYLDEPPSPLCFYRDWVCPNRPCIIRNALQHWPALQKWSLSYLRATVGSTEVSVAVTPDGYADAVRGDRFVMPAERRLPISHVLDVLEGRAQHPGVLYVQKQCSNLPTELPQLLSDIESHVPWASESLGKMPDAVNFWLGDASAVTSLHKDHYENLYCVVSGEKHFLLHPPSDRPFIPYNLYTPATYQLTEEGTFRVVDEEAMEKVPWIPLDPLAPDLTQYPSYSQAQALHCTVRAGEMLYLPALWFHHVQQSHGCIAVNFWYDMEYDLKYSYFQLMDTLTRATGLD | 2 | – |
| JMJD7 (mouse), JMJD7 protein alone generated from GST-JMJD7 fusion protein (enzyme, JMJD7, mouse; The GST-derived, tag-free form is stated for the crystals; also called mJMJD7; GST-free JMJD7) MAEAALEAVRRALQEFPAAARDLNVPRVVPYLDEPPSPLCFYRDWVCPNRPCIIRNALQHWPALQKWSLSYLRATVGSTEVSVAVTPDGYADAVRGDRFVMPAERRLPISHVLDVLEGRAQHPGVLYVQKQCSNLPTELPQLLSDIESHVPWASESLGKMPDAVNFWLGDASAVTSLHKDHYENLYCVVSGEKHFLLHPPSDRPFIPYNLYTPATYQLTEEGTFRVVDEEAMEKVPWIPLDPLAPDLTQYPSYSQAQALHCTVRAGEMLYLPALWFHHVQQSHGCIAVNFWYDMEYDLKYSYFQLMDTLTRATGLD | – | 2 |
